Source: article PMC10671485

Tests used:
Test in all cases: fluorescence anisotropy
[1] = test system: POLRMT WT (Homo sapiens); settings: no TFAM or TFB2M mentioned; N=7; 20 mM Tris-HCl EDTA buffer (pH and salt not given), 3 nM labeled duplex, 0-20 nM POLRMT, 25 °C; fit with Hill slope
[2] = test system: POLRMT T315E (phosphomimic) (Homo sapiens); settings: N=5; 20 mM Tris-HCl EDTA buffer (pH and salt not given), 3 nM labeled duplex, 0-20 nM POLRMT, 25 °C; fit with Hill slope
[3] = test system: POLRMT T993E (phosphomimic) (Homo sapiens); settings: N=4; 20 mM Tris-HCl EDTA buffer (pH and salt not given), 3 nM labeled duplex, 0-20 nM POLRMT, 25 °C; fit with Hill slope
[4] = test system: POLRMT K402Q (acetyl mimic) (Homo sapiens); settings: N=5; 20 mM Tris-HCl EDTA buffer (pH and salt not given), 3 nM labeled duplex, 0-20 nM POLRMT, 25 °C; fit with Hill slope

light strand promoter (LSP) duplex
Kd [1]: 3.45 nM | Kd [2]: 1.55 nM | Kd [3]: 2.87 nM | Kd [4]: 3.02 nM
